Source: the supplement of paper PMC10065799, “High-throughput profiling of sequence recognition by tyrosine kinases and SH2 domains using bacterial peptide display” (eLife, 2023)

Legend:
Jak2 = Jak2 (UniProt O60674); test: phosphorylation enrichment, bacterial display (enrichment ratio); higher = better substrate or ligand; peptides without Tyr show the background
c-Src = test: as above
AncSZ = test: as above
Fyn = Fyn (UniProt P06241); test: as above
Fer (mouse) = test: as above
FGFR1 = FGFR1 (UniProt P11362); test: as above
Sequence of FGFR1 (P11362 whole entry, looked up): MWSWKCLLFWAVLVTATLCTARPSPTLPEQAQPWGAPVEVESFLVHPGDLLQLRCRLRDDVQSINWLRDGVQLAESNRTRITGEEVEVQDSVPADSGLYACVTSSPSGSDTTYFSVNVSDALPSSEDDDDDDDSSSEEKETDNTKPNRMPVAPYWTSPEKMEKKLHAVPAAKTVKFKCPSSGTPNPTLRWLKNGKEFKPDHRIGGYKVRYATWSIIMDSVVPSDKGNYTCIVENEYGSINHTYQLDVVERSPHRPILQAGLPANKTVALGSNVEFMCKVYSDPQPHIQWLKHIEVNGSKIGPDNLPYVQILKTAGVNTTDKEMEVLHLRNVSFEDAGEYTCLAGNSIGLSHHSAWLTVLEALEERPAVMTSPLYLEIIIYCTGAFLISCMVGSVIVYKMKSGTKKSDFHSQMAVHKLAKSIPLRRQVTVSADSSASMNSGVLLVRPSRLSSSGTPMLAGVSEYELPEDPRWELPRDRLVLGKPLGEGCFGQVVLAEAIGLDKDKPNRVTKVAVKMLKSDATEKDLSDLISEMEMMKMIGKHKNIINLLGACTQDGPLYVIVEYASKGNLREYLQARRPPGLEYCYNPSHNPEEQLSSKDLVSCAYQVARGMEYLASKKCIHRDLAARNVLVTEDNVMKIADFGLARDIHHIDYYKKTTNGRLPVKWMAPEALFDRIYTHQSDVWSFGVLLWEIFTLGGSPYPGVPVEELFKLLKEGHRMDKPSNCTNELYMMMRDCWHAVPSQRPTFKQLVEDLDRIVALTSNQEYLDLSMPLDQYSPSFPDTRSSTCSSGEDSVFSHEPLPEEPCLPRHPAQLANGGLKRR

EPHB2 = EPHB2 (UniProt P29323); test: as above
MERTK = MERTK (UniProt Q12866); test: as above
c-Abl (mouse) = test: as above
EPHB1 = EPHB1 (UniProt P54762); test: as above
Sequence of EPHB1 (P54762 whole entry, looked up): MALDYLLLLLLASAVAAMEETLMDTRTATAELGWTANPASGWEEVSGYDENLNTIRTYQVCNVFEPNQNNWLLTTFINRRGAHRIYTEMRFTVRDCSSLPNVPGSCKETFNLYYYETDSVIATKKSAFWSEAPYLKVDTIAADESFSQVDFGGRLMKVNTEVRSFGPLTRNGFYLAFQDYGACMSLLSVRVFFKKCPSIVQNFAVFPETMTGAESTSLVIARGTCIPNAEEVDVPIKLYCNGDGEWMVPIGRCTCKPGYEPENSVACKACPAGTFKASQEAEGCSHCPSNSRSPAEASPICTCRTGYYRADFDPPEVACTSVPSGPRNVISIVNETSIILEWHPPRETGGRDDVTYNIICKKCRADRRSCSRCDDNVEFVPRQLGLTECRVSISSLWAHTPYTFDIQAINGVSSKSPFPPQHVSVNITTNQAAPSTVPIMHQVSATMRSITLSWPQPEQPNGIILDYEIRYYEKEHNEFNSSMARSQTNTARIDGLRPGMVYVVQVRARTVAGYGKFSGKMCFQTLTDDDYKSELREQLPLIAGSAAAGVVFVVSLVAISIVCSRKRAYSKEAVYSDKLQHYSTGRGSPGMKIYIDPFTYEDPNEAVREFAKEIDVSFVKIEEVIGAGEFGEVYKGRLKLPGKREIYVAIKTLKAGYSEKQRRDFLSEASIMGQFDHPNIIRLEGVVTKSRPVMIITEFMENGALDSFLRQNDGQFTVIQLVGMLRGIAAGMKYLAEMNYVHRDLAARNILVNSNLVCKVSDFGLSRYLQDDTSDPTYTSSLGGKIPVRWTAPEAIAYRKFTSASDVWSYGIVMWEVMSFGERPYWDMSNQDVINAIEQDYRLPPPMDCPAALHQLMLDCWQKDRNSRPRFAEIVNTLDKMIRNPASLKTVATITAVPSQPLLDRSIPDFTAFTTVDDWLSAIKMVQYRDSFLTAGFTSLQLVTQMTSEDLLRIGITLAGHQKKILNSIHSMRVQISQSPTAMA

Hck = Hck (UniProt P08631); test: as above
FGFR3 = FGFR3 (UniProt P22607); test: as above
Sequence of FGFR3 (P22607 whole entry, looked up): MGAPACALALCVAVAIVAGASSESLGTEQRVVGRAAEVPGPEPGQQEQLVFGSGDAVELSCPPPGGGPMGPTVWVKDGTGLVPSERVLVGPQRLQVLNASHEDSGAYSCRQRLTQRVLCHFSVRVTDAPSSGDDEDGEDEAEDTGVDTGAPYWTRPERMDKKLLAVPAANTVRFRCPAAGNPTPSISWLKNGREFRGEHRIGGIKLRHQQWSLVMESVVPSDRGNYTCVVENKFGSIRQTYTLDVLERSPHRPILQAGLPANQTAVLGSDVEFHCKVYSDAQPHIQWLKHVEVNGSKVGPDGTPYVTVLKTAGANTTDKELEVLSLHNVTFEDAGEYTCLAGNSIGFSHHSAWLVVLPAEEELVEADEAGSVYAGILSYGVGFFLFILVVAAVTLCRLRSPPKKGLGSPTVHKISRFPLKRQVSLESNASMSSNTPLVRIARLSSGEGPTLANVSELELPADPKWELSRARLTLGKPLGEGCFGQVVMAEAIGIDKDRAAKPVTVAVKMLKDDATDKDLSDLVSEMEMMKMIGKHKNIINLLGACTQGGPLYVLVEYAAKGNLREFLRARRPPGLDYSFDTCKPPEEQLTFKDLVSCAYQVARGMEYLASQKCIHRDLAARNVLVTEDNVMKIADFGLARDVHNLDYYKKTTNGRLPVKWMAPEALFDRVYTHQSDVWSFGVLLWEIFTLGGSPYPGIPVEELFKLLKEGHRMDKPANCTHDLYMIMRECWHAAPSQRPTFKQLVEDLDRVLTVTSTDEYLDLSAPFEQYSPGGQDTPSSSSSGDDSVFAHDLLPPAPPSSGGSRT

Fes = Fes (UniProt P07332); test: as above
Sequence of Fes (P07332 whole entry, looked up): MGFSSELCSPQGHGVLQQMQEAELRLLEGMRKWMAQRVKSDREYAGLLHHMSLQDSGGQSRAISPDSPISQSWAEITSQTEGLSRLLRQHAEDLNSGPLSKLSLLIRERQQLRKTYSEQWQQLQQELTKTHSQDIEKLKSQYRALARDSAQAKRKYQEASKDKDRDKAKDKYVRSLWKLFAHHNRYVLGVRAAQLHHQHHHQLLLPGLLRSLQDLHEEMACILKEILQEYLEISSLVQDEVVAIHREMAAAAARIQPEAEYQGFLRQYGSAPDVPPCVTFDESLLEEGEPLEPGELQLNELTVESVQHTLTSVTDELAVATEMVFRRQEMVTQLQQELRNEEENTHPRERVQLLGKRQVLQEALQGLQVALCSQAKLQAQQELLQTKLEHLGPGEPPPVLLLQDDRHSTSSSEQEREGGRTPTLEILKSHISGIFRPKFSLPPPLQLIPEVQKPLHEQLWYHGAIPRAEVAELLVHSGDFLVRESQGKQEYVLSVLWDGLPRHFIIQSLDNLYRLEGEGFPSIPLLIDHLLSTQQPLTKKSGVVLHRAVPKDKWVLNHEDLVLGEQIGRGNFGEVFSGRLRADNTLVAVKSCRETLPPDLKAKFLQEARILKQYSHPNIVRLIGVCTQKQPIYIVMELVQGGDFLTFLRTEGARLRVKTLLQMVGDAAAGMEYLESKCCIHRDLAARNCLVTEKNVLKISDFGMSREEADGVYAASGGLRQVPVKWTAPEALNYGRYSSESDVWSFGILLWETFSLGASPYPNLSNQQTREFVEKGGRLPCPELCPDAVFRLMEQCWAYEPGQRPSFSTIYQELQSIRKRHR

SHP2-C SH2 = test: SH2 binding enrichment of the phosphorylated peptide, bacterial display (enrichment ratio); higher = better substrate or ligand; peptides without Tyr show the background
Grb2 SH2 = Grb2 SH2 (UniProt P62993); test: as above
c-Src SH2 = test: as above
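Throughout, for SH2 binding enrichment of the phosphorylated peptide, bacterial display: peptide library displayed on the E. coli surface as eCPX fusions, selected cells deep-sequenced, score is each peptide's frequency after selection divided by its frequency in the input.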
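Throughout, for phosphorylation enrichment, bacterial display: 11-residue human phosphosite peptides and single-mutation variants displayed on the E. coli surface, counted by deep sequencing, each peptide's frequency after selection divided by its frequency in the unselected input library; frequency after pTyr selection over input frequency; kinase dosed for 20-30% of maximal phosphorylation in three min.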

Sequence of Jak2 (O60674 whole entry, looked up): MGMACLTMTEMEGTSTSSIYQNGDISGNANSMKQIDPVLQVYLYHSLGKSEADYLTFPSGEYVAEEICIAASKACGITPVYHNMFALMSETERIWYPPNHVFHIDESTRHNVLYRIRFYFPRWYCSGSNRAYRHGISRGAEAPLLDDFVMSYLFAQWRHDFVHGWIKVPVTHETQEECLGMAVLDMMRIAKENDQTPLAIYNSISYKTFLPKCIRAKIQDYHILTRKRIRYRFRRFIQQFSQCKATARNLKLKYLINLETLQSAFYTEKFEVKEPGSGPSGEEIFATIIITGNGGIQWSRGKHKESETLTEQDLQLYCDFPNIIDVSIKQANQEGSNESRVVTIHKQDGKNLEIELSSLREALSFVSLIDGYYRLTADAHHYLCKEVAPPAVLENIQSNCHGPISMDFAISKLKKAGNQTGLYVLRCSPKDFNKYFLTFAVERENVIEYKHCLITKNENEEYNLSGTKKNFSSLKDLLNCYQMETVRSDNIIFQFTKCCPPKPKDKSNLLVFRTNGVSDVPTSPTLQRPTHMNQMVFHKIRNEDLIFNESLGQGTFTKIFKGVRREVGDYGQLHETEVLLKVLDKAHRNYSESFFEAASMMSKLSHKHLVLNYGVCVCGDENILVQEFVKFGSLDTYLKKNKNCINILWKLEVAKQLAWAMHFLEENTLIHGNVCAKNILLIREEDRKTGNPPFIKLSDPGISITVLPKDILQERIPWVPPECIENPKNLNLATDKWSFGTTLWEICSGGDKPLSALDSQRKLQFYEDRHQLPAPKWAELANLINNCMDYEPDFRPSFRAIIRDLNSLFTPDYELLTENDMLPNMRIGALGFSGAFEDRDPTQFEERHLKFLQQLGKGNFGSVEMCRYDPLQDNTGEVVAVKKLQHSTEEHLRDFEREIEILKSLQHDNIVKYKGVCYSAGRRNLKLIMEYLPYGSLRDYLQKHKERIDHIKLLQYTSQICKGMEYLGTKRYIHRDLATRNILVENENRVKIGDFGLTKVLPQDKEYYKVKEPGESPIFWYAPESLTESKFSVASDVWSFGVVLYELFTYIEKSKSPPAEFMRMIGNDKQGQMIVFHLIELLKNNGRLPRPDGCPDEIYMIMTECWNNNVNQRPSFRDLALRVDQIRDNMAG
Sequence of Fyn (P06241 whole entry, looked up): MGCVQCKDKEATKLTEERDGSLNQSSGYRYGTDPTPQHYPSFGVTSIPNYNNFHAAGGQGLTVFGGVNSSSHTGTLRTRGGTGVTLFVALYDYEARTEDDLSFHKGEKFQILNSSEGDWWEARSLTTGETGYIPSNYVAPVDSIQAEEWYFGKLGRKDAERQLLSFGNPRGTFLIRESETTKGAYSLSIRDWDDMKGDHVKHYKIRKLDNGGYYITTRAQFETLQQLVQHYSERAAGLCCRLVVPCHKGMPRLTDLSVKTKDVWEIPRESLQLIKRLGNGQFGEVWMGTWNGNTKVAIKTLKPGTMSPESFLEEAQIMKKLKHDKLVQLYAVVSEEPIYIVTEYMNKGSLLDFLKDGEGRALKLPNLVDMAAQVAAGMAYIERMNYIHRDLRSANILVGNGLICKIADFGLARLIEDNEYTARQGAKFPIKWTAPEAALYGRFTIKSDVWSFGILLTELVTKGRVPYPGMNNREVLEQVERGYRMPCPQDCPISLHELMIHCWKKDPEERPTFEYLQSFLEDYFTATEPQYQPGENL

SH2 binding enrichment (SHP2-C SH2) | SH2 binding enrichment (Grb2 SH2) | SH2 binding enrichment (c-Src SH2) | Sequence | phosphorylation enrichment (Jak2) | phosphorylation enrichment (c-Src) | phosphorylation enrichment (AncSZ) | phosphorylation enrichment (Fyn) | phosphorylation enrichment (Fer (mouse)) | phosphorylation enrichment (FGFR1) | phosphorylation enrichment (EPHB2) | phosphorylation enrichment (MERTK) | phosphorylation enrichment (c-Abl (mouse)) | phosphorylation enrichment (EPHB1) | phosphorylation enrichment (Hck) | phosphorylation enrichment (FGFR3) | phosphorylation enrichment (Fes)
0.77 | 0.76 | 0.543 | IIWDSYTTNKV [GNB1_Y85] | 0.863 | 0.395 | 1.2 | 0.46 | 0.665 | 0.489 | 0.598 | 0.356 | 0.687 | 0.498 | 0.482 | 0.729 | 1.21
1.79 | 2 | 1.22 | IKKLIYVFLVI [JAGN1_Y42_H44Y_YF] | 0.736 | 0.424 | 0.884 | 0.462 | 0.454 | 0.716 | 0.547 | 0.547 | 0.701 | 0.556 | 0.393 | 0.797 | 1.1
1.16 | 0.71 | 0.575 | ILGRFYERGSI [PAX5_Y73_T75R_YF] | 0.662 | 0.451 | 0.651 | 0.483 | 0.398 | 0.413 | 0.476 | 0.395 | 0.532 | 0.392 | 0.486 | 0.517 | 0.674
0.739 | 0.85 | 0.407 | IRTIDYRFTVC [IDS_Y497_W502C_YF] | 1.14 | 0.469 | 1.22 | 0.444 | 0.518 | 0.561 | 0.579 | 0.396 | 0.952 | 0.787 | 0.581 | 0.832 | 1.38
0.719 | 0.642 | 0.419 | IVEFAYNDKAI [PUM3_Y259_YF] | 0.668 | 0.474 | 0.783 | 0.475 | 0.406 | 0.432 | 0.59 | 0.494 | 0.538 | 0.395 | 0.52 | 0.525 | 0.74
1.19 | 1.09 | 0.833 | IYHLSYHHNCE [PDE6B_Y227_L228H] | 1.03 | 2.29 | 1.29 | 2.15 | 0.671 | 1.32 | 0.602 | 3.55 | 2.09 | 0.703 | 1.51 | 1.17 | 1.34

The next lines start with the sequence.

Sequence | SH2 binding enrichment (SHP2-C SH2) | SH2 binding enrichment (Grb2 SH2) | SH2 binding enrichment (c-Src SH2) | phosphorylation enrichment (Jak2) | phosphorylation enrichment (c-Src) | phosphorylation enrichment (AncSZ) | phosphorylation enrichment (Fyn) | phosphorylation enrichment (Fer (mouse)) | phosphorylation enrichment (FGFR1) | phosphorylation enrichment (EPHB2) | phosphorylation enrichment (MERTK) | phosphorylation enrichment (c-Abl (mouse)) | phosphorylation enrichment (EPHB1) | phosphorylation enrichment (Hck) | phosphorylation enrichment (FGFR3) | phosphorylation enrichment (Fes)
IHFAIYFLKFS [ARMC9_Y107_L108F_YF] | 1.86 | 1.93 | 1.12 | 0.636 | 0.434 | 0.835 | 0.448 | 0.485 | 0.441 | 0.576 | 0.406 | 0.636 | 0.473 | 0.561 | 0.674 | 0.956
IKGNMYYENSY [EGFR_Y112_R108K] | 0.713 | 6.83 | 4.57 | 0.591 | 0.54 | 0.746 | 0.503 | 0.609 | 0.535 | 0.583 | 0.946 | 0.632 | 0.469 | 0.462 | 0.641 | 0.874
IKNSGYISRYL [EIF2AK3_Y585] | 1.01 | 1.08 | 0.706 | 0.538 | 0.448 | 0.558 | 0.4 | 0.376 | 0.513 | 0.406 | 0.404 | 0.558 | 0.443 | 0.33 | 0.531 | 0.711
IKSSIYDNRNE [ARAP2_Y380_K384N] | 0.593 | 0.682 | 0.608 | 0.466 | 0.399 | 0.505 | 0.464 | 0.33 | 0.443 | 0.502 | 0.405 | 0.397 | 0.413 | 0.696 | 0.388 | 0.584
INNIDYYKKTT [FGFR2_Y656] | 0.364 | 0.743 | 0.415 | 0.618 | 0.426 | 0.808 | 0.425 | 0.334 | 0.524 | 0.506 | 0.501 | 0.627 | 0.461 | 0.486 | 0.473 | 0.876
IRRWVYPLTPE [EIF2B5_Y319] | 0.716 | 0.811 | 0.517 | 0.732 | 0.437 | 0.934 | 0.514 | 0.559 | 0.451 | 0.522 | 0.476 | 0.464 | 0.406 | 0.481 | 0.613 | 0.943
ISKKIYDTIHD [CTNNA3_Y614] | 0.675 | 0.746 | 5.91 | 0.582 | 0.579 | 0.555 | 0.584 | 0.421 | 0.433 | 0.516 | 0.445 | 0.452 | 0.351 | 0.742 | 0.357 | 0.587
ITKQEYDEAGP [ACTA1_Y364] | 0.786 | 0.869 | 7.7 | 0.881 | 0.422 | 1.14 | 0.563 | 0.494 | 0.475 | 0.488 | 0.423 | 0.679 | 0.553 | 0.51 | 0.689 | 1.08
ITSLLYHVVGW [GBA_Y412_N409S] | 1.22 | 1.14 | 0.959 | 2.57 | 3.6 | 1.32 | 3.16 | 2.94 | 5.64 | 2.99 | 7.37 | 2 | 5.12 | 4.74 | 5 | 1.31
KAIMTYVPSFY [ACTN4_Y260_S262P] | 1.03 | 0.818 | 1.15 | 0.639 | 0.472 | 0.67 | 0.52 | 0.415 | 0.378 | 0.63 | 0.439 | 0.803 | 0.413 | 0.425 | 0.509 | 0.646
